± gives the standard deviation of the averaged measurements.
The sequences below were run on Saccharomyces cerevisiae (assay: protein stability index of tFT-peptide fusion (C-terminal peptide) (PSI (0-1 scale)); higher = more stable (slower turnover)). Conditions: genetic background: das1 deletion; temperature: 37 C.
Procedure: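 MPS profiling in S. cerevisiae of the tFT-X12 degron library: putative degron peptides plus stable controls, 12 aa, fused to the C-terminus of a sfGFP-mCherry timer. Cells are FACS-sorted into 8 mCherry/sfGFP bins and deep-sequenced. PSI runs from 0 (unstable) to 1 (stable). Backgrounds are wild type, das1Δ and doa10Δ at 30 °C, and wild type, das1Δ, cdc34-1 and cdc53-1 at 37 °C; 2-3 technical replicates each.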
NCVDRFKGQKRM was tested, and the protein stability index was 0.711 ± 0.0013. Sequence NFFIQFHNLLFP has a protein stability index of 0.769 ± 0.022. For NGLVCVFILSWY, the protein stability index was 0.437 ± 0.011. NLFVFLSYLFNV showed a protein stability index of 0.7168 ± 0.0052. In the case of NLVCLDPFLVFV, the protein stability index is reported as 0.613 ± 0.0077. Sequence NMVSMVVVIFGV has a protein stability index of 0.437 ± 0.024. In the case of NNQIQKKMYQTN, the protein stability index is reported as 0.737 ± 0.012. For NWAIEIRSVKIV, the protein stability index was 0.7084 ± 0.007. For NYCVFLSYLLFC, the protein stability index was 0.502 ± 0.0072. With NYFRPWLIFHKC the protein stability index was 0.742 ± 0.014. PALPQPMNPAPP gave a protein stability index of 0.727 ± 0.015. With PALVVALLASVL the protein stability index was 0.60007 ± 0.00036. PCLPLTPMWTLF showed a protein stability index of 0.7793 ± 0.0028. PFFVLFSLAFLF was tested, and the protein stability index was 0.4886 ± 0.00064. With PLATSLIGLFVV the protein stability index was 0.661 ± 0.021. For PLLLFFFPRLLF, the protein stability index was 0.6481 ± 0.0026. PLLPTPLTAPPP was tested, and the protein stability index was 0.7031 ± 0.006. PLLSATLTRRLA gave a protein stability index of 0.692 ± 0.0072. Work on PLTSPLLFPVFA yielded a protein stability index of 0.376 ± 0.0081. Sequence PPPLPFPTPPPS has a protein stability index of 0.702 ± 0.0074. For PPSLPPLISFSP, the protein stability index was 0.7661 ± 0.0014. PPSRSPLPPLLH showed a protein stability index of 0.707 ± 0.017. Work on PPTPYPRFIFSF yielded a protein stability index of 0.7672 ± 0.0047. With PPVPRLLPVLAP the protein stability index was 0.546 ± 0.02. For PRIVLFLRLHSN, the protein stability index was 0.6891 ± 0.002. Work on PRPETCHAVAVR yielded a protein stability index of 0.575 ± 0.015. With PRPLLSIYLRHA the protein stability index was 0.69 ± 0.019. With PRQPSKSNASNR the protein stability index was 0.722 ± 0.015. In the case of PSIALVRLDVIC, the protein stability index is reported as 0.46 ± 0.004. Sequence PSPFHSFYLRLI has a protein stability index of 0.712 ± 0.028. PSPPPYAPPIPA gave a protein stability index of 0.5857 ± 0.0057. PSSPTPPPSSSP showed a protein stability index of 0.73 ± 0.0086. PSSVKLRVPSLY showed a protein stability index of 0.7309 ± 0.00087. With PTPSRPPHPPLR the protein stability index was 0.725 ± 0.054. Work on PVALYPVQAYLT yielded a protein stability index of 0.715 ± 0.022. With PVFVLFFFSSLV the protein stability index was 0.5579 ± 0.0041. Work on PVLIFTWVIVCH yielded a protein stability index of 0.142 ± 0.013. Work on PVLPPPLLLCPC yielded a protein stability index of 0.11 ± 0.024. In the case of PWEYSSQLVLVI, the protein stability index is reported as 0.2067 ± 0.0011. QCRLPRPPLSLP showed a protein stability index of 0.7354 ± 0.0058. For QPTGYFKLIIIK, the protein stability index was 0.473 ± 0.047. QPTPQSALAKHQ was tested, and the protein stability index was 0.731 ± 0.034. For RASLPSLFRSLL, the protein stability index was 0.879 ± 0.019. For RAVLRFVMVWVL, the protein stability index was 0.5789 ± 0.003. With RCTLFVNPVCVH the protein stability index was 0.402 ± 0.025. Sequence RGFIFFALWSFC has a protein stability index of 0.5317 ± 0.0053. For RGFVVFCIPCFV, the protein stability index was 0.428 ± 0.033. With RGKVVRGLLFCA the protein stability index was 0.7327 ± 0.0057. RGPAYATCHLLC was tested, and the protein stability index was 0.75 ± 0.0094. With RIAIRSAVICAS the protein stability index was 0.487 ± 0.0057. For RIIKIRAISINL, the protein stability index was 0.607 ± 0.061. With RILKLPGHVNDV the protein stability index was 0.697 ± 0.026. RIRLYWVLRRLG gave a protein stability index of 0.758 ± 0.0098. Work on RISGSIVVRKRS yielded a protein stability index of 0.722 ± 0.019. Sequence RLPRILVLVCLF has a protein stability index of 0.383 ± 0.00011. Sequence RLPSSNVRYWVS has a protein stability index of 0.751 ± 0.032. RNDCAYHVLQIV was tested, and the protein stability index was 0.7115 ± 0.0031. In the case of RNTLLFKRILHI, the protein stability index is reported as 0.77 ± 0.018. For RPPSLVFLFLLT, the protein stability index was 0.598 ± 0.01. RRGGNIVWYCLV showed a protein stability index of 0.714 ± 0.011. RRIILAGLFLIS was tested, and the protein stability index was 0.623 ± 0.046. Work on RRMGLRLFLLWM yielded a protein stability index of 0.67 ± 0.015. Work on RSAVECRVTNIR yielded a protein stability index of 0.724 ± 0.01. Sequence RSFSKRSFMFLC has a protein stability index of 0.734 ± 0.0094. Sequence RSNLSKSWHRIG has a protein stability index of 0.743 ± 0.015. Work on RTMLSNRIKSFI yielded a protein stability index of 0.723 ± 0.02. RVRRETRLRQIA showed a protein stability index of 0.71 ± 0.021. RVVNRWGVCFLG was tested, and the protein stability index was 0.733 ± 0.021. Work on RVWTTVFIIRAT yielded a protein stability index of 0.6146 ± 0.0043. RYLHFASLLFAS was tested, and the protein stability index was 0.729 ± 0.0093. SDVLVVWVFFCR showed a protein stability index of 0.466 ± 0.013. SELLVHVVFWLA gave a protein stability index of 0.463 ± 0.012. For SFAVSSDYLFII, the protein stability index was 0.808 ± 0.032. SFCSFVFVTFVL showed a protein stability index of 0.508 ± 0.022. Sequence SFFCFFLSFFYL has a protein stability index of 0.562 ± 0.018. Sequence SFFSQAIPILAA has a protein stability index of 0.115 ± 0.015. For SFLCILIFPFFP, the protein stability index was 0.6 ± 0.015. For SFSFRPCLLLFF, the protein stability index was 0.51 ± 0.0096.

Same assay, conditions: genetic background: doa10 deletion; temperature: 30 C
For NCVDRFKGQKRM, the protein stability index was 0.422 ± 0.021. NFFIQFHNLLFP was tested, and the protein stability index was 0.653 ± 0.017. For NGLVCVFILSWY, the protein stability index was 0.21 ± 0.012. NLFVFLSYLFNV showed a protein stability index of 0.336 ± 0.035. For NLVCLDPFLVFV, the protein stability index was 0.475 ± 0.026. Sequence NMVSMVVVIFGV has a protein stability index of 0.196 ± 0.021. Sequence NNQIQKKMYQTN has a protein stability index of 0.179 ± 0.025. In the case of NWAIEIRSVKIV, the protein stability index is reported as 0.148 ± 0.0038. In the case of NYCVFLSYLLFC, the protein stability index is reported as 0.205 ± 0.012. In the case of NYFRPWLIFHKC, the protein stability index is reported as 0.2644 ± 0.00051. PALPQPMNPAPP was tested, and the protein stability index was 0.667 ± 0.022. PALVVALLASVL showed a protein stability index of 0.347 ± 0.015. Sequence PCLPLTPMWTLF has a protein stability index of 0.3716 ± 0.0014. PFFVLFSLAFLF showed a protein stability index of 0.2698 ± 0.0019. PLATSLIGLFVV gave a protein stability index of 0.273 ± 0.018. Sequence PLLLFFFPRLLF has a protein stability index of 0.39 ± 0.0054. PLLPTPLTAPPP showed a protein stability index of 0.659 ± 0.018. Work on PLLSATLTRRLA yielded a protein stability index of 0.162 ± 0.015. In the case of PLTSPLLFPVFA, the protein stability index is reported as 0.219 ± 0.011. PPPLPFPTPPPS was tested, and the protein stability index was 0.634 ± 0.025. In the case of PPSLPPLISFSP, the protein stability index is reported as 0.669 ± 0.011. PPSRSPLPPLLH was tested, and the protein stability index was 0.6917 ± 0.0047. For PPTPYPRFIFSF, the protein stability index was 0.331 ± 0.02. PPVPRLLPVLAP showed a protein stability index of 0.348 ± 0.0045. With PRIVLFLRLHSN the protein stability index was 0.107 ± 0.029. PRPETCHAVAVR showed a protein stability index of 0.363 ± 0.0093. PRPLLSIYLRHA gave a protein stability index of 0.29 ± 0.013. Sequence PRQPSKSNASNR has a protein stability index of 0.64909 ± 0.00052. For PSIALVRLDVIC, the protein stability index was 0.297 ± 0.011. PSPFHSFYLRLI gave a protein stability index of 0.263 ± 0.0033. Work on PSPPPYAPPIPA yielded a protein stability index of 0.416 ± 0.019. PSSPTPPPSSSP gave a protein stability index of 0.679 ± 0.017. Work on PSSVKLRVPSLY yielded a protein stability index of 0.61091 ± 0.00013. PTPSRPPHPPLR showed a protein stability index of 0.658 ± 0.025. For PVALYPVQAYLT, the protein stability index was 0.119 ± 0.01. Sequence PVFVLFFFSSLV has a protein stability index of 0.329 ± 0.011. PVLIFTWVIVCH showed a protein stability index of 0.0332 ± 0.0019. PVLPPPLLLCPC gave a protein stability index of 0.0972 ± 0.0096. PWEYSSQLVLVI was tested, and the protein stability index was 0.155 ± 0.0084. For QCRLPRPPLSLP, the protein stability index was 0.672 ± 0.032. In the case of QPTGYFKLIIIK, the protein stability index is reported as 0.38 ± 0.0083. For QPTPQSALAKHQ, the protein stability index was 0.3327 ± 0.0025. Sequence RASLPSLFRSLL has a protein stability index of 0.8152 ± 0.008. With RAVLRFVMVWVL the protein stability index was 0.253 ± 0.024. RCTLFVNPVCVH gave a protein stability index of 0.197 ± 0.011. In the case of RGFIFFALWSFC, the protein stability index is reported as 0.334 ± 0.021. Work on RGFVVFCIPCFV yielded a protein stability index of 0.204 ± 0.0051. RGKVVRGLLFCA gave a protein stability index of 0.137 ± 0.012. RGPAYATCHLLC was tested, and the protein stability index was 0.119 ± 0.013. For RIAIRSAVICAS, the protein stability index was 0.101 ± 0.032. RIIKIRAISINL showed a protein stability index of 0.454 ± 0.03. Sequence RILKLPGHVNDV has a protein stability index of 0.652 ± 0.065. Work on RIRLYWVLRRLG yielded a protein stability index of 0.0772 ± 0.023. Work on RISGSIVVRKRS yielded a protein stability index of 0.425 ± 0.0081. RLPRILVLVCLF gave a protein stability index of 0.169 ± 0.0018. RLPSSNVRYWVS showed a protein stability index of 0.1599 ± 0.001. Sequence RNDCAYHVLQIV has a protein stability index of 0.181 ± 0.0022. RNTLLFKRILHI gave a protein stability index of 0.0865 ± 0.024. In the case of RPPSLVFLFLLT, the protein stability index is reported as 0.401 ± 0.026. In the case of RRGGNIVWYCLV, the protein stability index is reported as 0.125 ± 0.0088. With RRIILAGLFLIS the protein stability index was 0.332 ± 0.021. RRMGLRLFLLWM gave a protein stability index of 0.354 ± 0.021. For RSAVECRVTNIR, the protein stability index was 0.639 ± 0.015. For RSFSKRSFMFLC, the protein stability index was 0.154 ± 0.0079. RSNLSKSWHRIG gave a protein stability index of 0.101 ± 0.011. RTMLSNRIKSFI gave a protein stability index of 0.239 ± 0.0068. For RVRRETRLRQIA, the protein stability index was 0.1423 ± 0.00049. RVVNRWGVCFLG was tested, and the protein stability index was 0.124 ± 0.014. RVWTTVFIIRAT was tested, and the protein stability index was 0.216 ± 0.023. For RYLHFASLLFAS, the protein stability index was 0.179 ± 0.006. Work on SDVLVVWVFFCR yielded a protein stability index of 0.216 ± 0.029. With SELLVHVVFWLA the protein stability index was 0.1383 ± 0.00086. For SFAVSSDYLFII, the protein stability index was 0.316 ± 0.037. For SFCSFVFVTFVL, the protein stability index was 0.317 ± 0.016. SFFCFFLSFFYL was tested, and the protein stability index was 0.475 ± 0.025. For SFFSQAIPILAA, the protein stability index was 0.129 ± 0.0039. SFLCILIFPFFP gave a protein stability index of 0.391 ± 0.011. SFSFRPCLLLFF showed a protein stability index of 0.38211 ± 0.00035.
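Also: PSI is a weighted mean of sequencing reads over stability bins, variants kept only with over 10 reads, mCherry proximal and sfGFP distal, peptide attached via GGGS linker.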
